In patent US20210388087A1 (Chugai, published 2021):
Positions count from the first letter of the chain named. Blank lines part the entries; values can stand above or below the binder they belong to.

Target: T1, Human CD137 ECD (human)
T1 construct: entry includes C-terminal His-tag and biotin acceptor peptide; also called human CD137 extracellular domain; 4-1BB
Experiment: Biacore SPR, vs parent H183/L072

T1 sequence (chain, as listed by the source limits assumed): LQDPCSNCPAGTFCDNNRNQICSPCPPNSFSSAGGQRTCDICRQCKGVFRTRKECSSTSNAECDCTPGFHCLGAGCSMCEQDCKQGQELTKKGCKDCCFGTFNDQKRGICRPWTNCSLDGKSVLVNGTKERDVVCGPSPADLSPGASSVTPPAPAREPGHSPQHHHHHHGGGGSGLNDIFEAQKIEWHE

fold change of affinity: 0.1 fold
B1: H183/L072 VL L33I (antibody, name in Kabat numbering, V domains shown)
VH: QVQLVESGGGLVQPGRSLRLSCAASGFTFSNAWMHWVRQAPGKGLEWVAQIKDKGNAYAAYYAPSVKGRFTISRDDSKNSIYLQMNSLKTEDTAVYYCHYVHYASASTVLPAFGVDAWGQGTTVTVSS
VL: DIVMTQSPLSLPVTPGEPASISCQASQELVHMNRNTYIHWYQQKPGQAPRLLIYKVSNRFPGVPDRFSGSGSGTDFTLKISRVEAEDVGVYYCAQGTSVPFTFGQGTKLEIK
notes: Dual-Ig

fold change of affinity: 0.2 fold
B2: H183/L072 VL L33T (antibody, name in Kabat numbering, V domains shown)
VH: B1 VH
VL: B1 VL with I38T
notes: Dual-Ig

fold change of affinity: 0.7 fold
B3: H183/L072 VL M27eY (antibody, name in Kabat numbering, V domains shown)
VH: B1 VH
VL: B1 VL with M32Y, I38L
notes: Dual-Ig

fold change of affinity: 0.9 fold
B4: H183/L072 VL L33M (antibody, name in Kabat numbering, V domains shown)
VH: B1 VH
VL: B1 VL with I38M
notes: Dual-Ig

fold change of affinity: 0.8 fold
B5: H183/L072 VL M27eH (antibody, name in Kabat numbering, V domains shown)
VH: B1 VH
VL: B1 VL with M32H, I38L
notes: Dual-Ig

fold change of affinity: 0.5 fold
B6: H183/L072 VL N28G (antibody, name in Kabat numbering, V domains shown)
VH: B1 VH
VL: B1 VL with N33G, I38L
notes: Dual-Ig

fold change of affinity: 0.6 fold
B7: H183/L072 VL L33V (antibody, name in Kabat numbering, V domains shown)
VH: B1 VH
VL: B1 VL with I38V
notes: Dual-Ig

fold change of affinity: 0.9 fold
B8: H183/L072 VL M27eE (antibody, name in Kabat numbering, V domains shown)
VH: B1 VH
VL: B1 VL with M32E, I38L
notes: Dual-Ig

fold change of affinity: 0.2 fold
B9: H183/L072 VL N28E (antibody, name in Kabat numbering, V domains shown)
VH: B1 VH
VL: B1 VL with N33E, I38L
notes: Dual-Ig

fold change of affinity: 0.7 fold
B10: H183/L072 VL M27eD (antibody, name in Kabat numbering, V domains shown)
VH: B1 VH
VL: B1 VL with M32D, I38L
notes: Dual-Ig

fold change of affinity: 0.1 fold
B11: H183/L072 VL L33N (antibody, name in Kabat numbering, V domains shown)
VH: B1 VH
VL: B1 VL with I38N
notes: Dual-Ig

fold change of affinity: 0.3 fold
B12: H183/L072 VL N28I (antibody, name in Kabat numbering, V domains shown)
VH: B1 VH
VL: B1 VL with N33I, I38L
notes: Dual-Ig

fold change of affinity: 1 fold
B13: H183/L072 VL M27eQ (antibody, name in Kabat numbering, V domains shown)
VH: B1 VH
VL: B1 VL with M32Q, I38L
notes: Dual-Ig

fold change of affinity: 0.1 fold
B14: H183/L072 VL L33Y (antibody, name in Kabat numbering, V domains shown)
VH: B1 VH
VL: B1 VL with I38Y
notes: Dual-Ig

fold change of affinity: 1 fold
B15: H183/L072 VL M27eA (antibody, name in Kabat numbering, V domains shown)
VH: B1 VH
VL: B1 VL with M32A, I38L
notes: Dual-Ig

fold change of affinity: 1 fold
B16: H183/L072 VL M27eR (antibody, name in Kabat numbering, V domains shown)
VH: B1 VH
VL: B1 VL with M32R, I38L
notes: Dual-Ig

fold change of affinity: 0.4 fold
B17: H183/L072 VL N28A (antibody, name in Kabat numbering, V domains shown)
VH: B1 VH
VL: B1 VL with N33A, I38L
notes: Dual-Ig

fold change of affinity: 0.8 fold
B18: H183/L072 VL M27eN (antibody, name in Kabat numbering, V domains shown)
VH: B1 VH
VL: B1 VL with M32N, I38L
notes: Dual-Ig

fold change of affinity: 0.7 fold
B19: H183/L072 VL M27eG (antibody, name in Kabat numbering, V domains shown)
VH: B1 VH
VL: B1 VL with M32G, I38L
notes: Dual-Ig

fold change of affinity: 0.9 fold
B20: H183/L072 VL M27eV (antibody, name in Kabat numbering, V domains shown)
VH: B1 VH
VL: B1 VL with M32V, I38L
notes: Dual-Ig

fold change of affinity: 0.7 fold
B21: H183/L072 VL M27eF (antibody, name in Kabat numbering, V domains shown)
VH: B1 VH
VL: B1 VL with M32F, I38L
notes: Dual-Ig

fold change of affinity: 0.9 fold
B22: H183/L072 VL M27eT (antibody, name in Kabat numbering, V domains shown)
VH: B1 VH
VL: B1 VL with M32T, I38L
notes: Dual-Ig

fold change of affinity: 0.4 fold
B23: H183/L072 VL N28H (antibody, name in Kabat numbering, V domains shown)
VH: B1 VH
VL: B1 VL with N33H, I38L
notes: Dual-Ig

fold change of affinity: 0.1 fold
B24: H183/L072 VL L33W (antibody, name in Kabat numbering, V domains shown)
VH: B1 VH
VL: B1 VL with I38W
notes: Dual-Ig

fold change of affinity: 1.1 fold
B25: H183/L072 VL M27eK (antibody, name in Kabat numbering, V domains shown)
VH: B1 VH
VL: B1 VL with M32K, I38L
notes: Dual-Ig

fold change of affinity: 0.4 fold
B26: H183/L072 VL N28F (antibody, name in Kabat numbering, V domains shown)
VH: B1 VH
VL: B1 VL with N33F, I38L
notes: Dual-Ig

fold change of affinity: 0.9 fold
B27: H183/L072 VL M27eS (antibody, name in Kabat numbering, V domains shown)
VH: B1 VH
VL: B1 VL with M32S, I38L
notes: Dual-Ig

fold change of affinity: 0.8 fold
B28: H183/L072 VL M27eL (antibody, name in Kabat numbering, V domains shown)
VH: B1 VH
VL: B1 VL with M32L, I38L
notes: Dual-Ig

fold change of affinity: 1.4 fold
B29: H183/L072 VL L33Q (antibody, name in Kabat numbering, V domains shown)
VH: B1 VH
VL: B1 VL with I38Q
notes: Dual-Ig

fold change of affinity: 1 fold
B30: H183/L072 VL M27eP (antibody, name in Kabat numbering, V domains shown)
VH: B1 VH
VL: B1 VL with M32P, I38L
notes: Dual-Ig

fold change of affinity: 0.9 fold
B31: H183/L072 VL M27eI (antibody, name in Kabat numbering, V domains shown)
VH: B1 VH
VL: B1 VL with M32I, I38L
notes: Dual-Ig

fold change of affinity: 0.7 fold
B32: H183/L072 VL M27eW (antibody, name in Kabat numbering, V domains shown)
VH: B1 VH
VL: B1 VL with M32W, I38L
notes: Dual-Ig

fold change of affinity: 0.2 fold
B33: H183/L072 VL L33P (antibody, name in Kabat numbering, V domains shown)
VH: B1 VH
VL: B1 VL with I38P
notes: Dual-Ig
